For experiment [1], the target named is T1, Recombinant Flag-BCA2 RING mutant (C228/231A), purified (human, UniProt Q9Y4L5 1-304, C228/231A | C228/231A).
T1 construct: BCA2, a 304 amino acid protein, with C228A and C231A in the RING domain (ligase-dead); also called RING mt; source: recombinant, purified
Put plainly: pull-down; purified recombinant Flag-BCA2 (wild type or mutants) incubated with sepharose-immobilised GST control or GST-14-3-3σ from bacterial cell lysates; immunoblot. As to conditions: both partners purified. (Immunoblotting shows a protein as a band on a membrane.)

Experiment [2] concerns the target T2, Recombinant Flag-BCA2, wild type, purified (human, UniProt Q9Y4L5 1-304).
T2 construct: BCA2, a 304 amino acid protein; also called Purified recombinant wild-type BCA2; source: recombinant, purified
Described as above. As to conditions: both partners purified.

From article PMC3298473, “Effects of partner proteins on BCA2 RING ligase activity” (BMC Cancer, 2012) come the findings set out here.

T2 sequence (Q9Y4L5 whole entry): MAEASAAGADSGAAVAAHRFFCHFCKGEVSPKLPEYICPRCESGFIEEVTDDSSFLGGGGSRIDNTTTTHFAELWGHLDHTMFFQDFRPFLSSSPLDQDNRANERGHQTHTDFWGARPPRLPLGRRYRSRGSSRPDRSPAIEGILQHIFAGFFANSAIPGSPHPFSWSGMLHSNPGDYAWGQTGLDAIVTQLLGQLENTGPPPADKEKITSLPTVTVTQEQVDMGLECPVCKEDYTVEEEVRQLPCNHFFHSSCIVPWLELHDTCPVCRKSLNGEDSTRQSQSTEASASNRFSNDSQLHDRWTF
T1 sequence (Q9Y4L5 other isoform, or with tags, fused parts or gaps C228/231A | C228/231A | C228/231A | C228/231A | mutant): as the sequence (Q9Y4L5 whole entry) above, with C228A, C231A counted along it

B1: GST-tagged 14-3-3σ (natural protein, human, UniProt P31947 1-248, looked up)
chain: MERASLIQKAKLAEQAERYEDMAAFMKGAVEKGEELSCEERNLLSVAYKNVVGGQRAAWRVLSSIEQKSNEEGSEEKGPEVREYREKVETELQGVCDTVLGLLDSHLIKEAGDAESRVFYLKMKGDYYRYLAEVATGDDKKRIIDSARSAYQEAMDISKKEMPPTNPIRLGLALNFSVFHYEIANSPEEAISLAKTTFDEAMADLHTLSEDSYKDSTLIMQLLRDNLTLWTADNAGEEGGEAPQEPQS
notes: 14-3-3σ; the GST construct is not described in the methods; also called GST-14-3-3σ; source: bacterial cell lysates, immobilised on sepharose
On to B1, for which the binding result in experiment [1] and in experiment [2] was “binds” in each case.
